The target in series [1] is T1, Spc110^891-944 (S. cerevisiae, UniProt P32380 891-944).
T1 sequence (looked up): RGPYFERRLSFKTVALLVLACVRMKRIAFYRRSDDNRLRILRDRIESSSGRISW
Put plainly: SAXS.

The target of series [2] is T1, Spc110^891-944. Put plainly: crystal structure.
Series [3] deals with the molecule itself. The experiment in a line: crystal structure.

We go through one molecule from article PMC5687031 (Molecular Biology of the Cell, 2017).

B1: Kluyveromyces lactis calmodulin (natural protein)
chain: not shown
modifications: disulfide between Cys79 of the two calmodulins in the crystal
By stoichiometry N is commonly meant a count of units in the complex or per binding partner. B1: the “stoichiometry N” value was 1 calmodulin per Spc110^891-944 in series [1], 1 calmodulin per Spc110 CBD (2:2) in series [2] and 2 calmodulin chains in series [3].
